Data on one molecule can be found in patent US20040259165A1 (published 2004).

This test concerns the target T1, DsRed fused to the Gal4 DNA binding domain (pGBT9) (Discosoma species).
T1 construct: range 1-147; also called DsRed-prey
As to the kind of experiment: yeast two hybrid in HF7C (HIS3 and LacZ reporters). As to the method: Yeast two hybrid assays were also performed. […] Alternatively, the yeast were grown on filters placed on plates lacking tryptophan and leucine to select for the bait and prey plasmids. After overnight growth, the filters were removed from the plates, frozen in liquid nitrogen, thawed, and incubated in X-gal overnight at 30° C. and two days at 4° C. to test for β-galactosidase activity (assayed by blue color development).

B1: DsRed fused to the Gal4 activation domain (pGAD GH) (other)
chain: ANFNQSGNIADSSLSFTFTNSSNGPNLITTQTNSQALSQPIASSNVHDNFMNNEITASKIDDGNNSKPLSPGWTDQTAYNAFGITTGMFNTTTMDDVYNYLFDDEDTPPNPKKEMRSSKNVIKEFMRFKVRMEGTVNGHEFEIEGEGEGRPYEGHNTVKLKVTKGGPLPFAWDILSPQFQYGSKVYVKHPADIPDYKKLSFPEGFKWERVMNFEDGGVVTVTQDSSLQDGCFIYKVKFIGVNFPSDGPVMQKKTMGWEASTERLYPRDGVLKGEIHKALKLKDGGHYLVEFKSIYMAKKPVQLPGYYYVDSKLDITSHNEDYTIVEQYERTEGRHHLFL
notes: range 768-881; also called DsRed-bait
As to B1, the binding result is reported as “binds”.
